# In patent US20090163410A1, “Novel Peptides and the Biological Use Thereof” (priority 2005, published 2009):
# Assays:
# [1] = target: peptide-phage 07B2S3 (fd phage) (UniProt P03661)
# [2] = target: peptide-phage 08B2S3 (fd phage) (UniProt P03661)
# [3] = target: HIV-1 (Lai) Nef/SH3-Hck interaction (Human immunodeficiency virus type 1 group M subtype B, UniProt P03406); details: for repression of the Nef-SH3 interaction as measured in the cell assay: COS-7 cells (FIG. 5B)
# Text: This assay makes it possible to integrate the cellular toxicity and bioavailability parameters by means of quantitative and functional reading of the interaction between two protein partners.
# The Checkmate™ commercial system (Promega) was adapted to the HIV-1 (Lai) Nef/SH3-Hck pair in COS-7 cell culture (FIG. 5). This system combines the expression of firefly luciferase under the control of the interaction between Nef and the SH3 domain of Hck, and the expression, which is independent, of renilla luciferase, a control for cell viability. The ratio of the intensity of these two luciferases makes it possible to quantify the activity of a Nef-SH3-interaction competitor capable of penetrating into the cell and the half-life of which is sufficient over the time period of the analysis. Other protein interactions are also reconstituted in this assay: one, which is non-SH3 (between Id and MyoD), in order to exclude the compounds having a nonspecific activity on the luciferase expression, and the other between SH3 of Hck and the SAM68 protein, in order to identify the compounds which interact via the SH3 domain and not via Nef.
# The cells are transferred using Fugene6 (Roche), according to the distributor's protocol. Briefly, the plasmids PG5 (300 ng), pAct or pActNef (400 ng), pBindHckmutated or pBindHck (100 ng) and pbcks (200 ng) are mixed, and then the Fugene 6 (3 μl diluted in 100 μl of DMEM culture medium) is added. The plasmids/Fugene6 mixture is left to react for a period of 15 min at ambient temperature, and is then deposited dropwise into the cell culture well.
# After expression for 24H, the cells are harvested by treatment with trypsin (Gibco, ref 25300-054), washed, and then dispensed into 96-well plates (reference 353072, Beckton Dickinson). 50 μl of DMEM culture medium are then added to each well.
# The activity of a candidate inhibitor compound is tested by adding 25 μl of this diluted compound to the well already containing 50 μl of the cell culture, and the luciferase activity is determined 24 H later in each well using the DualGlo assay kit according to the recommendations of the supplier (Promega).
Substance,repression of the Nef-SH3 interaction as measured in the cell assay [3],further results
"NefΔ1-57 protein (Nef HIV-1 LAI, residues 1 to 57 deleted) (from UniProt P03406 58-206)",–,IC50 [1]: 1 µM; IC50 [2]: 1 µM
R Ahx R Ahx R Ahx R Ahx R Ahx R Ahx R W P A W L P [SEQ ID No. 19],"repress the Nef-SH3 interaction as measured in the cell assay, in a dose-dependent manner",–
R Q I K I W F Q N R Nle K W K K [SEQ ID No. 15],"repress the Nef-SH3 interaction as measured in the cell assay, in a dose-dependent manner",–
R R R R R R R R W P A W L P [SEQ ID No. 17],"repress the Nef-SH3 interaction as measured in the cell assay, in a dose-dependent manner",–
W P A W L P (WPAWLP) [SEQ ID No. 11],–,"biological activity on the Nef-SH3 interaction (firefly/renilla luciferase ratio) ([3]; COS-7 cells, 10 to 50 μM of the peptide, compared with a control molecule, various times and periods of addition (FIG. 5B)): does not show any notable biological activity at low concentration"
